Reference: patent US6949244

What was measured:
[1] = biological target: murine monoclonal anti-HMFG antibody MC-10 (BrE-1); assay: RIA: plate coated with 100 ng 11D10, 125I-BrE-1 bound
[2] = biological target: BrE-3; assay: RIA: plate coated with 100 ng 11D10, 125I-BrE-3 bound
[3] = biological target: murine monoclonal anti-HMFG antibody MC-10 (BrE-1); assay: RIA: plate coated with 300 ng 11D10, 125I-BrE-1 bound
[4] = biological target: BrE-3; assay: RIA: plate coated with 300 ng 11D10, 125I-BrE-3 bound
[5] = biological target: murine monoclonal anti-HMFG antibody MC-10 (BrE-1); assay: RIA: plate coated with 1000 ng 11D10, 125I-BrE-1 bound
[6] = biological target: BrE-3; assay: RIA: plate coated with 1000 ng 11D10, 125I-BrE-3 bound
[7] = biological target: murine monoclonal anti-HMFG antibody MC-10 (BrE-1); assay: RIA: 125I-11D10 bound to BrE-1 coated plate, no inhibitor
[8] = biological target: murine monoclonal anti-HMFG antibody MC-10 (BrE-1); assay: competition RIA: 125I-11D10 on BrE-1 coated plate, 0.250 µg unlabeled 11D10
[9] = biological target: murine monoclonal anti-HMFG antibody MC-10 (BrE-1); assay: competition RIA: 250 ng 11D10 mixed with labeled BrE-1, binding to MCF-7 / SKBR3 cell monolayers

cpm [1]: 6150 cpm
cpm [2]: 263 cpm
cpm [3]: 16700 cpm
cpm [4]: 260 cpm
cpm [5]: 44200 cpm
cpm [6]: 374 cpm
cpm Bound [7]: 37100 cpm
% inhibition [8]: 95%
cpm Bound [8]: 1850 cpm
% inhibition [9]: > 90%
Substance: monoclonal anti-idiotype antibody 11D10
